# Test results taken from the supplement of paper PMC10567573.
# B1: OAS1 (parent)
# chain: YIGTHEYPHFSHRPSTLQAASTPQ
# Variants of: B1
# Assay: protein stability index of a GFP-peptide fusion (GPS, HEK-293T) (PSI 1-6); higher = more stable
# Conditions: c terminus: a fixed tail appended
# 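Also: lentivirally expressed fusions sorted by FACS into six bins by GFP to DsRed ratio, PSI derived from sequencing read proportions per bin multiplied by bin number.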
row,Variant,protein stability index
1,YIGTHEYPHFSHRPSWLQAASTPQ [T16W],2.23
2,YIGTHEYPHFSHRPSALQAASTPQ [T16A],2.29
3,YIGTHEYPHFSHRPSKLQAASTPQ [T16K],2.08
4,YIGTHEYPHFSHRPSTLQAASKPQ [T22K],2.35
5,YIGTHEYPHFSHRPSTLQAASNPQ [T22N],2.1
6,YIGTHEYPHFSHRPSTLQAASEPQ [T22E],1.8
7,YIGTHEYPHFSHRPSTLQAASCPQ [T22C],1.62
8,YIGTHEYPHFSHRPSTLQAASHPQ [T22H],1.6
9,YIGTHEYPHFSHRPSTLQAASYPQ [T22Y],1.71
10,YIGTHEYPHFSHRPSTLQAASMPQ [T22M],2.27
11,YIGVHEYPHFSHRPSTLQAASTPQ [T4V],1.76
12,YIGNHEYPHFSHRPSTLQAASTPQ [T4N],2.2
13,YIGSHEYPHFSHRPSTLQAASTPQ [T4S],1.89
14,YIGKHEYPHFSHRPSTLQAASTPQ [T4K],2.15
15,YIGGHEYPHFSHRPSTLQAASTPQ [T4G],2.27
16,YIGMHEYPHFSHRPSTLQAASTPQ [T4M],2.15
17,KIGTHEYPHFSHRPSTLQAASTPQ [Y1K],3.52
18,HIGTHEYPHFSHRPSTLQAASTPQ [Y1H],3.64
19,RIGTHEYPHFSHRPSTLQAASTPQ [Y1R],3.84
20,NIGTHEYPHFSHRPSTLQAASTPQ [Y1N],4.04
21,MIGTHEYPHFSHRPSTLQAASTPQ [Y1M],3.66
22,QIGTHEYPHFSHRPSTLQAASTPQ [Y1Q],4.21
23,LIGTHEYPHFSHRPSTLQAASTPQ [Y1L],3.54
24,AIGTHEYPHFSHRPSTLQAASTPQ [Y1A],4.01

row,Variant,protein stability index
1,FIGTHEYPHFSHRPSTLQAASTPQ [Y1F],1.49
2,YIGTHEYPHFSHRPSTLQAASTPV [Q24V],2.2
3,YIGTHEYPHFSHRPSTLQAASTPH [Q24H],2.15
4,YIGTHEYPHFSHRPSTLQAASTPL [Q24L],2.29
5,YIGTHEYPHFSHRPSTLQAASTPY [Q24Y],2.4
6,YIGTHEYPHFSHRPSTLQAASTPC [Q24C],1.69
7,YIGTHEYPHFSIRPSTLQAASTPQ [H12I],1.72
8,YIGTHEYPHFSKRPSTLQAASTPQ [H12K],2.07
9,YIGTHEYPHFSERPSTLQAASTPQ [H12E],2.25
10,YIGTHEYPHFSPRPSTLQAASTPQ [H12P],2.15
11,YIGTHEYPHFSLRPSTLQAASTPQ [H12L],2.39
12,YIGTHEYPHFSNRPSTLQAASTPQ [H12N],2.12
13,YIGTHEYPHFSMRPSTLQAASTPQ [H12M],1.68
14,YIGTHEYPHFSSRPSTLQAASTPQ [H12S],1.83
15,YIGTHEYPHFSARPSTLQAASTPQ [H12A],1.97
16,YIGTHEYPHFSGRPSTLQAASTPQ [H12G],1.71
17,YIGTMEYPHFSHRPSTLQAASTPQ [H5M],2.14
18,YIGTGEYPHFSHRPSTLQAASTPQ [H5G],2.09
19,YIGTEEYPHFSHRPSTLQAASTPQ [H5E],2.53
20,YIGTVEYPHFSHRPSTLQAASTPQ [H5V],2.23
21,YIGTREYPHFSHRPSTLQAASTPQ [H5R],2.35
22,YIGTYEYPHFSHRPSTLQAASTPQ [H5Y],1.83
23,YIGTWEYPHFSHRPSTLQAASTPQ [H5W],2.29
24,YIGTHEYPHFSHRQSTLQAASTPQ [P14Q],2.22

row,Variant,protein stability index
1,YIGTHEYPHFSHRLSTLQAASTPQ [P14L],1.7
2,YIGTHEYPHFSHRISTLQAASTPQ [P14I],1.72
3,YIGTHEYPHFSHRHSTLQAASTPQ [P14H],2.1
4,YIGTHEYPHFSHRVSTLQAASTPQ [P14V],2.48
5,YIGTHEYPHFSHRTSTLQAASTPQ [P14T],1.98
6,YIGTHEYPHFSHRESTLQAASTPQ [P14E],2.17
7,YIGTHEYPHFSHRDSTLQAASTPQ [P14D],2.1
8,YIGTHEYPHFSHRNSTLQAASTPQ [P14N],2.1
9,YIGTHEYPHFSHRPSTLQAISTPQ [A20I],2.19
10,YIGTHEYPHFSHRPSTLQAQSTPQ [A20Q],1.93
11,YIGTHEYPHFSHRPSTLQAYSTPQ [A20Y],1.89
12,YIGTHEYPHFSHRPSTLQAKSTPQ [A20K],2.17
13,YIGTHEYPHFSHRPSTLQANSTPQ [A20N],2.08
14,YIGTHEYPHFSHRPSTLQATSTPQ [A20T],2.04
15,YIGTHEYPHFSHRPSTLQAESTPQ [A20E],2.56
16,YIGTHEYPHFSHRPSTLQAPSTPQ [A20P],1.97
17,YIGTHEYPHFLHRPSTLQAASTPQ [S11L],2.54
18,YIGTHEYPHFIHRPSTLQAASTPQ [S11I],2.71
19,YIGTHEYPHFAHRPSTLQAASTPQ [S11A],1.96
20,YIGTHEYPHFKHRPSTLQAASTPQ [S11K],1.92
21,YIGTHEYPHFVHRPSTLQAASTPQ [S11V],2.85
22,YIGTHEYPHFCHRPSTLQAASTPQ [S11C],2.65
23,YIGTHEYPHFQHRPSTLQAASTPQ [S11Q],2.71
24,YIGTHEYPHFEHRPSTLQAASTPQ [S11E],2.56

row,Variant,protein stability index
1,YIGTHEYPHFSHRPSTLQAANTPQ [S21N],1.85
2,YIGTHEYPHFSHRPSTLQAAATPQ [S21A],2.1
3,YIGTHEYPHFSHRPSTLQAAMTPQ [S21M],1.94
4,YIGTHEYPHFSHRPSTLQAAETPQ [S21E],2.24
5,YIGTHEYPHFSHRPSTLQAAVTPQ [S21V],1.89
6,YIGTHEYPHFSHRPSTLQAALTPQ [S21L],1.53
7,YIGTHEYPHFSHRPSTLQAAKTPQ [S21K],1.81
8,YIGTHEYPHFSHRPSTLQAAITPQ [S21I],1.97
9,YIGTHEYPHFSHRPSTKQAASTPQ [L17K],1.79
10,YIGTHEYPHFSHRPSTIQAASTPQ [L17I],1.9
11,YIGTHEYPHFSHRPSTMQAASTPQ [L17M],2.24
12,YIGTHEYPHFSHRPSTHQAASTPQ [L17H],1.93
13,YIGTHEYPHFSHRPSTWQAASTPQ [L17W],2.01
14,YIGTHEYPHFSHRPSTAQAASTPQ [L17A],1.84
15,YIGTHEYPHFSHRPSTLFAASTPQ [Q18F],2.25
16,YIGTHEYPHFSHRPSTLEAASTPQ [Q18E],2.22
17,YIGTHEYPHFSHRPSTLHAASTPQ [Q18H],2.38
18,YIGTHEYPHFSHRPSTLSAASTPQ [Q18S],1.65
19,YIGTHEYPHFSHRPSTLCAASTPQ [Q18C],2.08
20,YIGTHEYPHFSHRPSTLMAASTPQ [Q18M],1.74
21,YIGTHEYPHFSHRPSTLGAASTPQ [Q18G],2.06
22,YIGTHEYPHFSHRPSTLRAASTPQ [Q18R],1.95
